Here are results for three molecules from publication PMC3942289, “Characterization of Ten Heterotetrameric NDP-Dependent Acyl-CoA Synthetases of the Hyperthermophilic Archaeon Pyrococcus furiosus” (Archaea, 2014).

What is called Km is the concentration of substrate that gives half-maximal velocity. Broadly, the kcat/Km is the turnover number divided by the Michaelis constant.

The target of one data set is T1, ACS3-G (Pyrococcus furiosus, UniProt E7FHP1+Q8U461).
T1 construct: gene PF0233
Particulars: reverse reaction; 20 mM acid, 1 mM ATP or GTP, 0.5 mM CoA, 2 mM MgCl2, pH 7.0, 80°C.

The next data set concerns the target T2, ACS2-G (Pyrococcus furiosus, UniProt E7FHP1+Q8U3D6).
T2 construct: gene acdAII
Particulars: reverse reaction; 20 mM acid, 1 mM ATP or GTP, 0.5 mM CoA, 2 mM MgCl2, pH 7.0, 80°C.

Substrate in data set [1]: CC(C)CC(=O)SCCNC(=O)CCNC(=O)[C@H](O)C(C)(C)COP(=O)(O)OP(=O)(O)OC[C@H]1O[C@@H](n2cnc3c(N)ncnc32)[C@H](O)[C@@H]1OP(=O)(O)O
The experiment in a line: DTNB assay of released CoASH, 96-well. The data set is classed as biochemical, Pyrococcus furiosus. To be noted: forward reaction, 2 mM ADP, 10 mM K2HPO4, 2 mM MgCl2, pH 7.0, 80°C. An excerpt: (§1) DTNB assay of released CoASH, 96-well on ACS5-A

Substrate in data set [2]: CC(C)C(=O)SCCNC(=O)CCNC(=O)[C@H](O)C(C)(C)COP(=O)(O)OP(=O)(O)OC[C@H]1O[C@@H](n2cnc3c(N)ncnc32)[C@H](O)[C@@H]1OP(=O)(O)O
The experiment in a line: DTNB assay of released CoASH, 96-well. The data set is classed as biochemical, Pyrococcus furiosus. Particulars: forward reaction, 2 mM ADP, 10 mM K2HPO4, 2 mM MgCl2, pH 7.0, 80°C.
Excerpt: as §1

Substrate in data set [3]: CC(=O)SCCNC(=O)CCNC(=O)[C@H](O)C(C)(C)COP(=O)(O)OP(=O)(O)OC[C@H]1O[C@@H](n2cnc3c(N)ncnc32)[C@H](O)[C@@H]1OP(=O)(O)O
The experiment in a line: DTNB assay of released CoASH, 96-well. To be noted: forward reaction, 2 mM ADP, 10 mM K2HPO4, 2 mM MgCl2, pH 7.0, 80°C. The class given is biochemical, Pyrococcus furiosus.
Excerpt: as §1

T2 sequence (Q8U3D6 whole entry): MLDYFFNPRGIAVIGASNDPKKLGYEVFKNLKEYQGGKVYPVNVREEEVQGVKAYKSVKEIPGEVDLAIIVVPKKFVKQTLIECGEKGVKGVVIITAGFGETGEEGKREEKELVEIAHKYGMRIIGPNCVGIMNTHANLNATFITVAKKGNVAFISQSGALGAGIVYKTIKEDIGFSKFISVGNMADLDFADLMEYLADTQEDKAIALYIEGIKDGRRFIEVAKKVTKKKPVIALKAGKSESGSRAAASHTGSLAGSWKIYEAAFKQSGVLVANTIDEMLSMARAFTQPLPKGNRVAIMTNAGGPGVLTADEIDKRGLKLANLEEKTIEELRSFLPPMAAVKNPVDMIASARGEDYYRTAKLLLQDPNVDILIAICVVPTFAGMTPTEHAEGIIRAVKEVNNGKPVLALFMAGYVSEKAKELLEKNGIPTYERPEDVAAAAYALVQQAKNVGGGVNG
T2 sequence (E7FHP1 whole entry): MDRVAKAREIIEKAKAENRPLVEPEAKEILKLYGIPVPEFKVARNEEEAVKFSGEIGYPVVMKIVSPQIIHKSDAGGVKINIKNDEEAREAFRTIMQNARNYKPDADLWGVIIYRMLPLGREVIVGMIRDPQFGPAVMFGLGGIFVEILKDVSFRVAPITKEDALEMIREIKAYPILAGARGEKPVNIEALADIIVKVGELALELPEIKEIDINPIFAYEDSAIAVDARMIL
T1 sequence (Q8U461 1-465): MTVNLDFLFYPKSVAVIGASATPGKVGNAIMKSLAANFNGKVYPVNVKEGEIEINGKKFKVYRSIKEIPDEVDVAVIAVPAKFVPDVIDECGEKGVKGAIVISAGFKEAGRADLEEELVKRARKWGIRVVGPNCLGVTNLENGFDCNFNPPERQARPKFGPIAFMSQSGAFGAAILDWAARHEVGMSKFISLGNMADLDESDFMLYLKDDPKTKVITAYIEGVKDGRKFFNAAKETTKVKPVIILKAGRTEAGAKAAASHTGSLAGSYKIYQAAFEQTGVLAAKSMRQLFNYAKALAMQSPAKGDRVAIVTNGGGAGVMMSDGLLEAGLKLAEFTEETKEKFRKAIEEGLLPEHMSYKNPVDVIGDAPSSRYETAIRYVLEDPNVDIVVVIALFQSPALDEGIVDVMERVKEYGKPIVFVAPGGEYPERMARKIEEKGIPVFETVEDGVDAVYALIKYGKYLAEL
T1 sequence (E7FHP1 whole entry): as the sequence (E7FHP1 whole entry) above

Regarding `O=C(O)CCC(=O)O` [succinate], the relative activity entry at ACS3-G is given as “The only isoenzyme that showed activity with succinate was ACS3”.

Turning to `CSCCC(=O)O` [3-methylthiopropionate], the relative activity result on ACS2-G was “Surprisingly, ACS2 was also active with 3-methylthiopropionate”.

B1: ACS5-A (Pyrococcus furiosus DSM 3638) (protein)
chain 1: MINNLDIKEQLRSFFDPKAVAIIGATNKKGKVGNVIFENFKRNKERGIFKGNIYPVNPKLDEIDGYKVYHSVEELPDDTDLAVVAIPAPAVPETMRKIAEKGIKAVVIITGGFGELGEEGKRMEQEILEIARAHGIRVIGPNCVGVYVPDTGVDTVFLPEEKMDRPKSGPIAFVSQSGAFAAAMLDWAAMAGIGIGKMVSYGNKIDVDDADLMEYFAQDEQIKVMTFYIEGVKDGRRFMEVAKRVTKIKPIIALKSGRTEYGAKAASSHTGSLAGQDVIYDAVFKQTGIIRAEDFEHMFDLAKAFAKCKLPKGDRIGIITDGGGAGVMASDAVAKFGLKLAELSEETLRFLREKFPPHAVVGNPTDVVGDTDAERYRLALEAFTKDPNVDAILVIVLFQVPLLDEEEVIEIIADYAKKSDKPIVAVSMGGYKTDRYAKMLEEKGVPVYPTPERGVRALAGLVRYAEYLRKMGE
chain 2: MKGEALKIIEEVLAQGRTAMVEYEAKQVLKAYGLPVPEEKLAKTLDEALKYAEEIGYPVAMKLMSPQILHKSDAKVVMLNIKSPEELKKKWEEIHENARKYRPDAEIFGVLIAPMLKPGREVIIGVTEDPQFGHAIMFGLGGIFVEILKDVTFRIIPITEKDARKMITEIKAYPILAGARGEEPADIEAIVDMLLKVSKLVDDLKDYIKEMDLNPVFVYRKGEGAVVVDARIILKG
notes: alpha (pET24a) and beta-A (pET21b) coexpressed in E. coli BL21(DE3) pRIL, untagged, heat-treated and desalted; alpha2beta2 ~140 kDa; The same primer pair is printed for PF1838 and PF1837 (probable misprint)
Consider B1, for which the Km is 820 ± 407 µM in data set [1], 2730 ± 1080 µM in data set [2] and 620 ± 1.0 µM in data set [3]. Besides, the kcat/Km in data set [1] came out at 120000 M⁻¹ s⁻¹; in data set [2], 83000 M⁻¹ s⁻¹; in data set [3] it was 112000 M⁻¹ s⁻¹.
